Consider two substances from paper PMC2875016.

The target in assay [1] is HpNikR mutant M6 (C96S) (Helicobacter pylori). Description: crystal structure.
For assay [2], the target named is HpNikR mutant M5 (H74G, H75G) (Helicobacter pylori). The assay can be described thus: crystal structure.

The term stoichiometry N denotes a count of units in the complex or per binding partner. On to “HpNikR mutant M6 (C96S) (natural protein)”, for which the stoichiometry N in assay [1] came out at 4.

“HpNikR mutant M5 (H74G, H75G) (natural protein)” yielded a stoichiometry N in assay [2] of 4.
